Results on two molecules are retold here after patent publication US20110300156A1 (Genmab, published 2011).

Test [1] addresses T1, human tissue factor (TF), membrane-bound on cells (human, UniProt P13726 33-295).
T1 construct: whole, on cells; also called cellular TF
Nature of the test: FACS, A431 cells. Summed up:
(§1)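 Specific HuMab binding to cell-surface antigen is detected by flow cytometry using a PE-conjugated anti-human IgGFc secondary.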
(In flow cytometry, cells or beads pass a laser one at a time.)

Test [2] concerns the target T1, human tissue factor (TF), …. Nature of the test: cell-based or functional assay.
The target is the same in test [3]. Kind of test: FACS, A431 cells, 30 µg/mL. Summed up:
as §1

The target is the same in test [4]. Kind of test: FACS, Bx-PC3 cells, 30 µg/mL. The essentials: as §1
Test [5] shares this target. Nature of the test: FACS on AsPC-1 cells (~175.000 TF molecules/cell) [panel AsPC-1 cells]. The protocol:
(§2) Cells were resuspended in PBS (2×10⁶ cells/ml), put in 96-well V-bottom plates (50 μl/well). 50 μl of serially diluted HuMab in FACS buffer (PBS supplemented with 0.1% BSA and 0.02% Na-azide) was added to the cells and incubated for 30 minutes on ice. After washing three times with FACS buffer, 50 μl of phycoerythrin (PE)-conjugated goat anti-human IgGFc (Jackson ImmunoResearch), diluted 1:100 in FACS buffer, was added. After 30 minutes on ice (in the dark), cells were washed three times, and specific binding of the HuMabs was detected by flow cytometry on a FACSCalibur (BD Biosciences). HuMab-KLH was used as a negative control. Mouse anti-TF followed by PE-conjugated anti-mouse IgGFc was used as positive control. Binding curves were analyzed using non-linear regression (sigmoidal dose-response with variable slope) using GraphPad Prism V4.03 software (GraphPad Software, San Diego, Calif., USA).
Binding of anti-TF HuMabs to membrane-bound TF on cell lines expressing different levels of TF was determined by FACS analysis, essentially as described supra. Mouse anti-TF antibody followed by PE-conjugated anti-mouse IgGFc was used as a positive control. Fluorescence was measured on a FACSCantoII. Binding curves were analyzed essentially as described supra, using GraphPad Prism 5 software. The amount of TF molecules on cell lines was determined by Qifi kit (Dako, Glostrup, Denmark), according to the manufacturer's instructions.

The target is the same in test [6]. Kind of test: FACS on SK-OV-3 cells (~60.000 TF molecules/cell) [panel SK-OV-3 cells]. The protocol: as §2
Binding of anti-TF HuMabs to membrane-bound TF on cell lines expressing different levels of TF was determined by FACS analysis, essentially as described supra. […] Fluorescence was measured on a FACSCantoII. Binding curves were analyzed essentially as described supra, using GraphPad Prism 5 software. The amount of TF molecules on cell lines was determined by Qifi kit (Dako, Glostrup, Denmark), according to the manufacturer's instructions.

Test [7] has as its target T2, murine tissue factor (TF) on transfected HEK293F cells (murine, UniProt P20352 29-294).
T2 construct: whole, on cells; also called murine TF; TFmm
T2 sequence (looked up): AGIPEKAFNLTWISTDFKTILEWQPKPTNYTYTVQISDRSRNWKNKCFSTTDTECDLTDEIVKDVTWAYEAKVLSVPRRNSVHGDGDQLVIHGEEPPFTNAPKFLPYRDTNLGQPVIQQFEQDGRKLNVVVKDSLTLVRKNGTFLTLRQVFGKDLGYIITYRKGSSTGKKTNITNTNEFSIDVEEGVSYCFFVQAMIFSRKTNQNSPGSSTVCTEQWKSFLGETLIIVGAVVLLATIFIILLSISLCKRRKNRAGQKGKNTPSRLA
Nature of the test: FACS on transfected HEK293F cells, 30 µg/mL antibody [panel M].

Test [8] addresses T3, TFECDHis (extracellular domain of tissue factor, amino acid 1-251, with C-terminal His tag) (human, UniProt P13726 33-251).
T3 construct: range 1-251; The stated range 1-251 starts at residue 1 of NP-001984; also called extracellular domain of TF
Nature of the test: SPR avidity format: TFECDHis immobilized, bivalent HuMab as analyte (printed as avidity nM). The protocol:
Antibody binding to TF was analyzed by surface plasmon resonance in a BIAcore 3000 (GE Healthcare). TFECDHis was used for the analysis. HuMab antibodies (500 resonance units) were immobilized on the CM-5 sensor chip according to the procedure recommended by the manufacturer. Briefly, after surface activation by EDC and NHS HuMab antibody was injected over the activated CM-5 surface in 10 mM sodium-acetate, pH ranging from 4.0 to 5.5 at 5 μl/min. followed by 1 M Ethanolamine for deactivation. Concentration series of TFECDHis in HBS-EP buffer were injected over the immobilized antibodies at a flow rate of 30 μl/min for 180 sec. Regeneration of the HuMab surface was performed by injection of 10 mM Glycine-HCl pH 2.0 or 10 mM sodium acetate pH 3.0. Kinetic analysis was performed using double reference subtraction and model 1:1 (langmuir) binding analysis.
TF (TFECDHis) binding to TF-specific HuMabs was determined essentially as described above, with TFECDHis being immobilized on the CM-5 sensor chip (300 resonance units), and concentration series of Humab antibodies used for kinetic analysis. Kinetic analysis was performed using double reference subtraction and model 1:1 (langmuir) binding analysis.

The target of test [9] is T2, murine tissue factor (TF) on …. Kind of test: FACS on transfected HEK293F cells, 30 µg/mL antibody [Figure 18; no figure label on the sheet]. The method, then: as §2
To determine domains important for binding of anti-TF HuMabs to human TF, DNA shuffling was performed between human and murine TF. Shuffle constructs were prepared from DNA encoding human TF, by replacing human domains with murine domains and from DNA encoding murine TF by replacing murine domains with human domains.

B1: anti-TF HuMab 109 (antibody, V domains shown)
VH: QVQLVESGGGVVQPGRSLRLSCPASGFTFSIYAMHWVRQAPGKGLEWVAVVSNDGYNKYYADSVKGRFTISRDNSKDTLYLQMNSLRAEDTAVYYCARDGQLGRGYFDYWGQGTLVTVSS
VL: EIVLTQSPATLSLSPGERAILSCRASQSVSSYLAWYQQKPGQAPRLLIYDASNRATGIPARFSGSGSGTDFTLTISSLEPEDFAVYYCQQRSNWPLTFGGGTKVEIK
notes: Human monoclonal antibody from HuMab mice
With B1, the EC50 in [1] is 1740 pM. For the same molecule, the “EC50 of ADCC, Bx-PC3 cells” value in [2] is 60 pM. Moreover, the “EC50 of ADCC, MDA-MB-231 cells” value in test [2] stood at 120 pM. Besides, the “Max MFI” value is 3120 in test [3] and 1320 in test [4]. In addition, the “EC50 (read off the curve)” value in test [5] is about 0.1 µg/mL; in test [6], about 0.04 µg/mL. Moreover, the binding result in test [7] is listed as “no binding (tested: 30 µg/mL)”. This molecule registered a Kd in test [8] of 10 pM.

B2: anti-TF HuMab 013 (antibody, V domains shown)
VH: EVQLVQSGAEVKKPGESLKISCKGSGYSFTSYWIGWVRQMPGKGLEWMGIIYPGDSDTRYSPSFQGQVTISADKSISTAYLQWSSLKASDTAMYYCARIHRGAGYSSSWPGAFDIWGQGTMVTVSS
VL: DIQMTQSPSSLSASVGDRVTITCRASQGISRWLAWYQQKPEKAPKSLIYAASSLQSGVPSRFSGSGSGTDFTLTISSLQPEDFATYYCQQYDSDPITFGQGTRLEIK
notes: Human monoclonal antibody from HuMab mice; also called HuMab-TF-13
B2 registered a 50% effective concentration (EC50) in test [1] of 8040 pM. Moreover, in [2], the “EC50 of ADCC, Bx-PC3 cells” value amounted to 70 pM and the “EC50 of ADCC, MDA-MB-231 cells” value stood at 60 pM. The “Max MFI” value in test [3] came out at 3620. Besides, in test [4], the “Max MFI” value is 1300. Moreover, the binding result in [9] was “no binding (tested: 30 µg/mL)”.

By EC50 is commonly meant the concentration giving half of the maximal effect. The low end stands for a more potent agent, the high end for a less potent agent. As a reminder, the EC50 (read off the curve) is the midpoint of the concentration-response curve. Lower therefore signals greater potency.
